The record followed here is the supplement of paper PMC10899765.

What all share (conditions): 20 nM; 72 h
The test system of data set [1] is MCF10A. Description: 5+ nucleoli phenotype percent effect (relative to siNT 0% and siKIF11 100%); higher = more cells with five or more nucleoli. Here is the method: (§1)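 After 72 h, cells were fixed and stained with Hoechst and anti-fibrillarin, and nucleoli per nucleus were counted with CellProfiler. Values are plate-adjusted percent effect for the one-nucleolus and 5+ nucleoli phenotypes, normalised to siNT (0%) and to the positive controls siNOL11 or siKIF11 (100%), as the mean of biological triplicates. Percent viability is the nuclei count relative to siNT.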

Data set [2] has as its system MCF10A. Description: one-nucleolus phenotype percent effect (relative to siNT 0% and siNOL11 100%); higher = more cells with one nucleolus (ribosome biogenesis inhibition). As to the method: as §1
Data set [3] relates to MCF10A. Nature of the data set: percent viability (nuclei count relative to siNT); higher = more viable cells. As to the method: as §1

Consider AAACAAACAUGGUGCACUUCUU [hsa-miR-495-3p], for which the “5+ nucleoli phenotype percent effect” value in the data set on MCF10A [1] was -10.6%. The “one-nucleolus phenotype percent effect” value with MCF10A [2] is 5.47%. In addition, the percent viability in the data set with MCF10A [3] is 93.6%.

In the case of “AAACACCAUUGUCACACUCCAC [hsa-miR-3591-3p]”, in the data set on MCF10A [1], the “5+ nucleoli phenotype percent effect” value is -27%. Further, the “one-nucleolus phenotype percent effect” value in the data set on MCF10A [2] stood at 32.5%. In addition, the percent viability with MCF10A [3] came to 27.5%.

As to AAACAUUCGCGGUGCACUUCUU [hsa-miR-543], the “5+ nucleoli phenotype percent effect” value in the data set with MCF10A [1] amounted to 0.749%. The “one-nucleolus phenotype percent effect” value with MCF10A [2] was -1.05%. Further, in the data set with MCF10A [3], the percent viability came out at 37.4%.

Take AAACCGUUACCAUUACUGAGUU [hsa-miR-451a]: the “5+ nucleoli phenotype percent effect” value in the data set with MCF10A [1] was determined as 12.9%. Also, the “one-nucleolus phenotype percent effect” value with MCF10A [2] is -5.64%. Besides, the percent viability with MCF10A [3] came to 69.8%.

On to AAACCUGUGUUGUUCAAGAGUC [hsa-miR-649], for which, in the data set with MCF10A [1], the “5+ nucleoli phenotype percent effect” value was found to be 34.7%. In addition, the “one-nucleolus phenotype percent effect” value with MCF10A [2] is -16.6%. For the same sequence, in the data set with MCF10A [3], the percent viability came out at 113%.

As to “AAACUAAUAUACCCAUAUUCUG [hsa-miR-5583-5p]”, the “5+ nucleoli phenotype percent effect” value in the data set on MCF10A [1] was found to be 35.5%. For the same sequence, in the data set on MCF10A [2], the “one-nucleolus phenotype percent effect” value was -23.4%. Besides, the percent viability in the data set on MCF10A [3] came to 115%.

Take “AAACUAAUCUCUACACUGCUGC [hsa-miR-3129-3p]”: in the data set on MCF10A [1], the “5+ nucleoli phenotype percent effect” value came to 5.92%. Also, the “one-nucleolus phenotype percent effect” value in the data set with MCF10A [2] is -4.83%. Besides, the percent viability with MCF10A [3] worked out at 98.8%.

Take AAACUACUGAAAAUCAAAGAU [hsa-miR-606]: in the data set on MCF10A [1], the “5+ nucleoli phenotype percent effect” value was 18.1%. Besides, the “one-nucleolus phenotype percent effect” value with MCF10A [2] is -12.6%. For the same sequence, in the data set on MCF10A [3], the percent viability was found to be 133%.

As to AAACUCUACUUGUCCUUCUGAGU [hsa-miR-618], the “5+ nucleoli phenotype percent effect” value with MCF10A [1] is -16.4%. For the same sequence, the “one-nucleolus phenotype percent effect” value in the data set on MCF10A [2] was found to be 10.9%. Also, the percent viability with MCF10A [3] is 46.5%.

With AAAGACAUAGGAUAGAGUCACCUC [hsa-miR-641], the “5+ nucleoli phenotype percent effect” value in the data set with MCF10A [1] was 1.49%. The “one-nucleolus phenotype percent effect” value in the data set with MCF10A [2] is -15.4%. Also, the percent viability in the data set on MCF10A [3] stood at 213%.

For the sequence “AAAGACAUAGUUGCAAGAUGGG [hsa-miR-3617-5p]”, the “5+ nucleoli phenotype percent effect” value in the data set on MCF10A [1] was found to be 37.2%. Further, in the data set on MCF10A [2], the “one-nucleolus phenotype percent effect” value was -28.6%. The percent viability in the data set on MCF10A [3] was found to be 188%.

For “AAAGACCCAUUGAGGAGAAGGU [hsa-miR-3667-5p]”, the “5+ nucleoli phenotype percent effect” value with MCF10A [1] was -13.6%. In the data set with MCF10A [2], the “one-nucleolus phenotype percent effect” value came out at 11.5%. In addition, in the data set on MCF10A [3], the percent viability came out at 99.1%.

As to “AAAGACCGUGACUACUUUUGCA [hsa-miR-548ao-3p]”, in the data set on MCF10A [1], the “5+ nucleoli phenotype percent effect” value is -18.1%. In addition, in the data set with MCF10A [2], the “one-nucleolus phenotype percent effect” value stood at 18.2%. Also, the percent viability in the data set on MCF10A [3] came out at 80.6%.

Consider AAAGACUCUGCAAGAUGCCU [hsa-miR-4432], for which the “5+ nucleoli phenotype percent effect” value in the data set with MCF10A [1] is -6.99%. The “one-nucleolus phenotype percent effect” value in the data set with MCF10A [2] was -5.81%. For the same sequence, the percent viability in the data set on MCF10A [3] is 67.3%.

For the sequence “AAAGAUAGACAAUUGGCUAAAU [hsa-miR-4662a-3p]”, the “5+ nucleoli phenotype percent effect” value with MCF10A [1] amounted to 4.11%. In addition, in the data set with MCF10A [2], the “one-nucleolus phenotype percent effect” value was -23.7%. In the data set with MCF10A [3], the percent viability is 83.7%.

As for “AAAGAUCUGGAAGUGGGAGACA [hsa-miR-3156-5p]”, the “5+ nucleoli phenotype percent effect” value with MCF10A [1] amounted to 45.1%. The “one-nucleolus phenotype percent effect” value with MCF10A [2] is -18.8%. In the data set with MCF10A [3], the percent viability came out at 43.6%.

Take AAAGAUGGACAAUUGGCUAAAU [hsa-miR-4662b]: the “5+ nucleoli phenotype percent effect” value in the data set with MCF10A [1] was -25.7%. For the same sequence, the “one-nucleolus phenotype percent effect” value in the data set on MCF10A [2] stood at 49.4%. Also, the percent viability in the data set with MCF10A [3] is 38.3%.

Regarding AAAGCGCUUCCCUUCAGAGUG [hsa-miR-518e-3p], the “5+ nucleoli phenotype percent effect” value with MCF10A [1] is -27.4%. The “one-nucleolus phenotype percent effect” value in the data set with MCF10A [2] amounted to 9.91%. The percent viability in the data set with MCF10A [3] worked out at 48.9%.

Consider AAAGCUGGGUUGAGAAGG [hsa-miR-320e], for which the “5+ nucleoli phenotype percent effect” value with MCF10A [1] was found to be 2.27%. The “one-nucleolus phenotype percent effect” value with MCF10A [2] stood at 3.44%. Moreover, in the data set on MCF10A [3], the percent viability was found to be 28.6%.

On to AAAGGAAAGUGUAUCCUAAAAG [hsa-miR-651-3p], for which, in the data set with MCF10A [1], the “5+ nucleoli phenotype percent effect” value amounted to 37%. For the same sequence, in the data set on MCF10A [2], the “one-nucleolus phenotype percent effect” value was -19.5%. In addition, in the data set with MCF10A [3], the percent viability turned out to be 139%.

In the case of “AAAGGAUUCUGCUGUCGGUCCCACU [hsa-miR-541-5p]”, in the data set with MCF10A [1], the “5+ nucleoli phenotype percent effect” value is -28.2%. In addition, the “one-nucleolus phenotype percent effect” value in the data set with MCF10A [2] was 12.6%. Further, in the data set with MCF10A [3], the percent viability worked out at 51.1%.

On to AAAGGUAACUGUGAUUUUUGCU [hsa-miR-548ba], for which the “5+ nucleoli phenotype percent effect” value with MCF10A [1] amounted to 38.2%. Further, the “one-nucleolus phenotype percent effect” value with MCF10A [2] was -24.2%. In the data set with MCF10A [3], the percent viability turned out to be 146%.

As to AAAGGUAAUUGCAGUUUUUCCC [hsa-miR-548ai], the “5+ nucleoli phenotype percent effect” value in the data set on MCF10A [1] worked out at 16.1%. Besides, the “one-nucleolus phenotype percent effect” value in the data set with MCF10A [2] was -23.8%. The percent viability in the data set on MCF10A [3] worked out at 155%.

As for AAAGGUAAUUGCAGUUUUUCCC [hsa-miR-570-5p], in the data set on MCF10A [1], the “5+ nucleoli phenotype percent effect” value came out at 56.8%. Further, the “one-nucleolus phenotype percent effect” value in the data set on MCF10A [2] was -30.8%. Besides, in the data set on MCF10A [3], the percent viability was found to be 95.2%.
